Target: T1, recombinant human IL-20Rb (human, UniProt Q6UXL0 30-233)
T1 construct: also called human recombinant IL-20RB; recombinant IL-20RB
T1 sequence: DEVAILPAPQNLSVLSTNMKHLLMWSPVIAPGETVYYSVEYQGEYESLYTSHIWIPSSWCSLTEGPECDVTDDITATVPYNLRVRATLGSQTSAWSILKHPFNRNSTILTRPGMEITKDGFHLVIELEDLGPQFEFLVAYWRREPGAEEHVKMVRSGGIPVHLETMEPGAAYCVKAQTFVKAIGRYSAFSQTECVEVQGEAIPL
Assay: ELISA on coated recombinant IL-20Rb (FIG. 8)

binding result: binds
B1: B7 antibody (native B7 clone), human anti-IL-20Rb antibody (antibody, mouse IgG2a, V domains shown)
VH: EVQLVESGGSLVKPGGSLRLSCAASGFTFSNYSMNWVRQAPGKGLEWISYISGSSRYISYADFVKGRFTISRDNATNSLYLQMNSLRAEDTAVYYCVRSYYGMDVWGRGTLVTVSS
VL: QSVLTQPASVSGSPGQSITISCAGTSSDVGGNYYVSWYQQHPGKAPKLMIYGDSYRPSGVSNRFSGSKSGNTASLTISGLQAEDEADYYCSSYTYYSTRVFGGGTKLAVLG

From patent US20230002497A1 (INSERM INSTITUT NATIONAL DE LA SANTE ET DE LA RECHERCHE …, published 2023)
